Residue numbers refer to the chain shown, from its start. Names may count otherwise.
T1: human CEACAM5 (carcinoembryonic antigen, CEA), cell surface (human, UniProt P06731 35-685)
T1 construct: whole, on cells; also called CD66e
T1 sequence (looked up): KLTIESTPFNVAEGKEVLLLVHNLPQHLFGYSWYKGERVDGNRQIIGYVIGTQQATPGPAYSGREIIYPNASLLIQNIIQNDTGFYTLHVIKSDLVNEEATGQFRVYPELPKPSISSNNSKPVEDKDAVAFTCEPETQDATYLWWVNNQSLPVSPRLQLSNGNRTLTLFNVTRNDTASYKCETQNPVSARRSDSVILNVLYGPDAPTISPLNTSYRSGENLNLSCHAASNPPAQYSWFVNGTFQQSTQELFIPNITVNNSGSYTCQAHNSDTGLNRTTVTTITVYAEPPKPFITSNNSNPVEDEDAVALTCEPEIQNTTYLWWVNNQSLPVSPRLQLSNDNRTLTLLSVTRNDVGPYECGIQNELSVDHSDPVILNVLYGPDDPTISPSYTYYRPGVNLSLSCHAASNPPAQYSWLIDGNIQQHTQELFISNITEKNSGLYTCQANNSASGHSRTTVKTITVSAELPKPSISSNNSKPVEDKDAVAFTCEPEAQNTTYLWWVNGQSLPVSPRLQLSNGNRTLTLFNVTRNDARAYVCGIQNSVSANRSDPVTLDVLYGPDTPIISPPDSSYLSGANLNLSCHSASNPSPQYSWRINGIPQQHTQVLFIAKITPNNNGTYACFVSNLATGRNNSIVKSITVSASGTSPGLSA

T2: human CEACAM1 (human, UniProt P13688 35-526)
T2 construct: whole, on cells
T2 sequence (looked up): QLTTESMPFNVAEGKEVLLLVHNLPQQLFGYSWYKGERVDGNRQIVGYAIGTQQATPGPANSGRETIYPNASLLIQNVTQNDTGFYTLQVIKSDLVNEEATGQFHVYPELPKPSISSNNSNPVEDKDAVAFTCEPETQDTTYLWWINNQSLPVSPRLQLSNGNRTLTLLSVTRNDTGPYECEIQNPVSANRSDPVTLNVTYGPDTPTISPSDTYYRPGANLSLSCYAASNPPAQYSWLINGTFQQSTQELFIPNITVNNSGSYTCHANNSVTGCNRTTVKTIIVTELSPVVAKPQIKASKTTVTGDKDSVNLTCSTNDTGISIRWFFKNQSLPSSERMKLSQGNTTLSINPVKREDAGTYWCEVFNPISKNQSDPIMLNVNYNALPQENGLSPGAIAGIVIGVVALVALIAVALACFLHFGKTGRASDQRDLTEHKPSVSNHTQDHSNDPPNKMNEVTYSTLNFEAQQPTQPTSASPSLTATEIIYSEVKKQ

B1: AB17L3-1/N (bispecific antibody, human IgG1, kappa, lambda, L234A L235A)
heavy: EVQLVESGGGLVQPGGSLKLSCAASGFTFNTYAMNWVRQAPGKGLEWVGRIRSKYNNYATYYADSVKDRFTISRDDSKNTAYLQMNSLKTEDTAVYYCVRHGNFGNSYVSWFAYWGQGTLVTVSSASTKGPSVFPLAPSSKSTSGGTAALGCLVKDYFPEPVTVSWNSGALTSGVHTFPAVLQSSGLYSLSSVVTVPSSSLGTQTYICNVNHKPSNTKVDKRVEPKSCDKTHTCPPCPAPEAAGGPSVFLFPPKPKDTLMISRTPEVTCVVVDVSHEDPEVKFNWYVDGVEVHNAKTKPREEQYNSTYRVVSVLTVLHQDWLNGKEYKCKVSNKALAAPIEKTISKAKGQPREPQVYTLPPSREEMTKNQVSLTCLVKGFYPSDIAVEWESNGQPENNYKTTPPVLDSDGSFFLYSKLTVDKSRWQQGNVFSCSVMHEALHNHYTQKSLSLSPG
light 1: EIVLTQSPATLSLSPGERATLSCRASQSVNSNLNWYQQKPGQAPRLLIYHGSNRATGIPARFSGSGSGTDFTLTISSLEPEDFAVYYCQQFDYFKEHNTFGQGTKVEIKRTVAAPSVFIFPPSDEQLKSGTASVVCLLNNFYPREAKVQWKVDNALQSGNSQESVTEQDSKDSTYSLSSTLTLSKADYEKHKVYACEVTHQGLSSPVTKSFNRGEC
light 2: QTVVTQEPSLTVSPGGTVTLTCRSSTGAVTTSNYANWFQQKPGQAPRGLIGGTNKRAPGTPARFSGSLLGGKAALTLSGAQPEDEAEYYCALWYKQRWVFGGGTKLTVLGQPKAAPSVTLFPPSSEELQANKATLVCLISDFYPGAVTVAWKADSSPVKAGVETTTPSKQSNNKYAASSYLSLTPEQWKSHRSYSCQVTHEGSTVEKTVAPTECS
notes: Kappa-lambda body, lead optimization wave 1
B2: AB1L3-1/N (bispecific antibody, human IgG1, kappa, lambda, L234A L235A)
heavy: B1 heavy
light 1: B1 light 1 with Y93L, F94R, K95H
light 2: B1 light 2
notes: Kappa-lambda body: common heavy chain (hIgG1 L234A+L235A+P329A), kappa CEA light chain AB1, lambda CD3 light chain L3-1 (1A4); also called parental KL bispecific antibody
B3: AB73L3-1/N (bispecific antibody, human IgG1, kappa, lambda, L234A L235A)
heavy: B1 heavy
light 1: B1 light 1 with G51S, S52N, A55P, T56H, K95R, H97Y
light 2: B1 light 2
notes: Kappa-lambda body, lead optimization wave 2
B4: AB72L3-1/N (bispecific antibody, human IgG1, kappa, lambda, L234A L235A)
heavy: B1 heavy
light 1: B1 light 1 with G51S, S52T, A55P, T56R, H97Y
light 2: B1 light 2
notes: as for B3
B5: AB71L3-1/N (bispecific antibody, human IgG1, kappa, lambda, L234A L235A)
heavy: B1 heavy
light 1: B1 light 1 with G51S, A55P, T56H
light 2: B1 light 2
notes: as for B3

Molecular target: T1, human CEACAM5 (carcinoembryonic …)
Test: flow cytometry, MFI on transfected PEAK cells divided by MFI on WT PEAK cells
Method: (§1) Similarly, vectors encoding the full-length version of cyno CEACAM 5 and 6 are also used to express these proteins at the surface of PEAK and/or CHO cells. Non-transfected PEAK and/or CHO cells are used as negative control. Cells are harvested, counted, checked for viability and resuspended at 3×10⁶ cells/ml in FACS buffer (PBS 2% BSA, 0.1% NaN₃). 100 μl of the cell suspension are distributed in V-bottom 96-well plates (3×10⁵ cells/well). The supernatant is removed by centrifugation 3 minutes at 4° C., 1300 rpm and the cells incubated for 15 minutes at 4° C. with increasing concentrations of the antibody according to the invention. The antibodies carrying the anti-CEACAM5 arms to test are diluted in FACS buffer and the concentration range is 30 pM-500 nM. Cells are washed twice with cold FACS buffer and re-incubated for further 15 minutes at 4° C. with a compatible anti-human IgG secondary antibody. Cells are washed twice with cold FACS buffer and resuspended in 300 μl FACS buffer with 1:1500-diluted TOPRO-3 (Invitrogen). Fluorescence is measured using a FACSCalibur™ (BD Biosciences) or a Cytoflex Platform (Beckman Coulter). Dose-response binding curves are fitted using GraphPad Prism8 software. In the same manner, CEACAM1, CEACAM6 and other CEACAMs can be characterized.
(§2) For the bispecific antibodies AB17L3-1/N, AB71L3-1/N, AB72L3-1/N, AB73L3-1/N the MFI measured for binding to CEACAM5 transfected cells was found between 29000 and 41000 (Table 2). In contrast MFI found by using PEAK cells transfected with CEACAM 1,3,4,6,8 were found below 1000 with the only exception of a strong signal for AB72L3-1/N on CEACAM8 transfected cells. When MFI values obtained on transfected cells expressing any given CEACAM are divided by the values obtained on WT PEAK cells, “factors to PEAK WT” can be calculated (Table 3). With the exception of AB72L3-1/N, the antibodies of the invention are all specific to CEACAM5, as the “factor to PEAK WT” values are all below 2.0.

First: B1
Second: B2
The “Factor to PEAK WT” value of the first is higher: 55.1 fold for the first, 16.8 fold for the second.

First: B3
Second: B4
The “Factor to PEAK WT” value of the first is lower: 70.8 fold for the first, 85.3 fold for the second.

For B5, the “Factor to PEAK WT” value was 79.7 fold.

Molecular target: T2, human CEACAM1
Test: as above
Method: as §1, §2

Going from B1 to B2, the “Factor to PEAK WT” value falls from 1.2 fold to 1 fold.

First: B3
Second: B4
The “Factor to PEAK WT” value of the first is lower: 1.1 fold for the first, 1.4 fold for the second.

For B5, the “Factor to PEAK WT” value was 1 fold.

— US20230136228A1 (LAMKAP BIO ALPHA, published 2023)
